Source: patent US20260183411A1, “TARGETING SORTILIN” (priority 2024, published 2026)
Where no end group is shown, it is not given here. [ ]: non-standard residue; d: D form. Cba = N[C@@H](CC1CCC1)C(=O)O; Tle = CC(C)(C)[C@H](N)C(=O)O

T1: SORT1 on cells (HEK293 cells transiently transfected with / overexpressing SORT1); SORT1-expressing MDA-MB-231 … (UniProt Q99523 78-831, limits assumed)
T1 sequence (looked up): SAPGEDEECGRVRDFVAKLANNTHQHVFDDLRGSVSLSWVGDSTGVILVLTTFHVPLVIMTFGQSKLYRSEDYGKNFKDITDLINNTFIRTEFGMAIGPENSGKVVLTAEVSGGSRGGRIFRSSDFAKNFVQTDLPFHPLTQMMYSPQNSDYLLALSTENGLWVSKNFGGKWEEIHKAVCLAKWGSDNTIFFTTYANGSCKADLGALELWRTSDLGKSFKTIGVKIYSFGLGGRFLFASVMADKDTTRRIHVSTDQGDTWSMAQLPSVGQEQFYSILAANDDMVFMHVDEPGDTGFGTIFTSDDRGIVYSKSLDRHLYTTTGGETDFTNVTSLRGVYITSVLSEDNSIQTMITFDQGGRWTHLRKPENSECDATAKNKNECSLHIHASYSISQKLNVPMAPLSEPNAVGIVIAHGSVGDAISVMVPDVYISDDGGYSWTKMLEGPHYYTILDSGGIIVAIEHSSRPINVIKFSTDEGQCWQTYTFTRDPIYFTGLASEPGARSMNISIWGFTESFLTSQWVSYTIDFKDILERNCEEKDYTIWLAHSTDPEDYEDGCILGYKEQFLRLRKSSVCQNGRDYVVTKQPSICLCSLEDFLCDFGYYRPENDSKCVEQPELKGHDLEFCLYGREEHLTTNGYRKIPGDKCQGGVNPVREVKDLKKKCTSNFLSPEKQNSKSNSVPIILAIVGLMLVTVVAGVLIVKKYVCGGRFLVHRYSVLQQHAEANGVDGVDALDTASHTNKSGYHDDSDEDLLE

T2: mouse SORT1 (76-753)-His (mouse, UniProt Q6PHU5 76-753)
T2 construct: range 76-753; Amine-coupled to CM5 chip for SPR
T2 sequence (looked up): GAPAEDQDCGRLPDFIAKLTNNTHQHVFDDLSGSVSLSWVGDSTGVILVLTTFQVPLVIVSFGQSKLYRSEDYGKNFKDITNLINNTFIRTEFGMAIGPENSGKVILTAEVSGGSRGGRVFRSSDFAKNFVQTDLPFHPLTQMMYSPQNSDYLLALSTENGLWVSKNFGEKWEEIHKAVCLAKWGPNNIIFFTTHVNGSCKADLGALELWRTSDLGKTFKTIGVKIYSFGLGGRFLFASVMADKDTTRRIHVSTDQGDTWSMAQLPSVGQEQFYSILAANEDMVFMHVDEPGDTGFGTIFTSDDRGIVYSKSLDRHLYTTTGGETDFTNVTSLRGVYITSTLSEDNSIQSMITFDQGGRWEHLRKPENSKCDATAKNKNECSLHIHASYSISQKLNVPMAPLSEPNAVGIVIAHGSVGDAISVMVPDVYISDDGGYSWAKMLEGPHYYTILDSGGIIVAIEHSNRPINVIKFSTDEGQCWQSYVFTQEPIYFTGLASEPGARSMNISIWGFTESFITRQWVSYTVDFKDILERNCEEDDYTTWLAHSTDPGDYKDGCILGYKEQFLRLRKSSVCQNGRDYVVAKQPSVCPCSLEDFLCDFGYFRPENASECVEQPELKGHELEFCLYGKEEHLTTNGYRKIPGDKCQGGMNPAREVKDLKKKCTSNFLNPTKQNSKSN

T3: rat SORT1 (76-752)-His (rat, UniProt O54861 76-752)
T3 construct: range 76-752; Amine-coupled to CM5 chip for SPR
T3 sequence (looked up): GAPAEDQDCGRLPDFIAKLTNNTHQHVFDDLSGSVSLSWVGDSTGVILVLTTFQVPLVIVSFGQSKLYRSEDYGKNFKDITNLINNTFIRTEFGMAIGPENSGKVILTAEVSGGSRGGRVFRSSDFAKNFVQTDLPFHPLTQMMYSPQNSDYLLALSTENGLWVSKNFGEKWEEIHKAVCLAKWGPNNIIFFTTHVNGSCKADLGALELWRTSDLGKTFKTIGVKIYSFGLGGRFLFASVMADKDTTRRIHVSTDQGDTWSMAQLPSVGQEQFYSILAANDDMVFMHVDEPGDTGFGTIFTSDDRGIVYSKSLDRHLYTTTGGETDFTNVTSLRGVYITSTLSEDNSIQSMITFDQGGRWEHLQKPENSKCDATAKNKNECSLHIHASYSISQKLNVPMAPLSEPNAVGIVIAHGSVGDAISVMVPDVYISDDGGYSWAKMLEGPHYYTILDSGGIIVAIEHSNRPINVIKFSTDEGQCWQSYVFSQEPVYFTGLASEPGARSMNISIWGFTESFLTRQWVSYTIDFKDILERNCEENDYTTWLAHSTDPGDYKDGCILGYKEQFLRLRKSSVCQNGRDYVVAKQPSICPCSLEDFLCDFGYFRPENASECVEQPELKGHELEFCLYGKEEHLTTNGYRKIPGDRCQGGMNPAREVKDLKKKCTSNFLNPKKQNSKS

T4: cyno SORT1 (76-753)-His (cyno, UniProt A0A2K5VHG2 74-751)
T4 construct: range 76-753; Amine-coupled to CM5 chip for SPR
T4 sequence: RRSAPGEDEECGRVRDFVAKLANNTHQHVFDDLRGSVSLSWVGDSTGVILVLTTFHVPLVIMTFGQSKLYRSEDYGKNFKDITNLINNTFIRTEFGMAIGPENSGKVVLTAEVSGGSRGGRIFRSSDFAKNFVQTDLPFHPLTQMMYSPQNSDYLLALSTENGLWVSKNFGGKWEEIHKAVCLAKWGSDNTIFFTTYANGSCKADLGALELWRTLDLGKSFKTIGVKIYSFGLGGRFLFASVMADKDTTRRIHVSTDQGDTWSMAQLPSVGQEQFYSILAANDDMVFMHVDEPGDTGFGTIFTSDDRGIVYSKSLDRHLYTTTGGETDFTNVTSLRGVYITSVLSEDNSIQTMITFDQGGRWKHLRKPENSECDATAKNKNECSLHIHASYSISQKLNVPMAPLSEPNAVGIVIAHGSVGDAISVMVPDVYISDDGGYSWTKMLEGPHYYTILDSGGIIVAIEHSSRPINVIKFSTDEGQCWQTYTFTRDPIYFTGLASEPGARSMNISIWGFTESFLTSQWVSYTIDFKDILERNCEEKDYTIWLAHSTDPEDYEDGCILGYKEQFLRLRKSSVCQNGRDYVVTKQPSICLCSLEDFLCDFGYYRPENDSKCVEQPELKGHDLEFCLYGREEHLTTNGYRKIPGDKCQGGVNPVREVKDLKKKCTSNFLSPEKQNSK

B1: Peptide 2-GAPDH6-BCN (peptide)
peptide: XXXXXXAPRWDAPLRDPALRQXX
modifications: N-terminal 6-azidohexanoic acid joined by a triazole to hexyl-BCN on the 5' end of the sense strand of GAPDH siRNA; 1: (bAla); 2-5: (Sar); 21: (B13); 22: (G48)
B2: SORT1 peptide 2 conjugate (peptide)
peptide: APRWDAPLRDPALRQ[Tle][Cba]
modifications: also: conjugated to siRNA targeting a housekeeping gene mRNA, linker and handle not given here
notes: also called SORT1 peptide 2 siRNA conjugate; Arb-SAR-Q15_PDC2
B3: Peptide 2-GAPDH6-thiol (peptide)
peptide: XXXXXAPRWDAPLRDPALRQXX
modifications: not fully specified; N-terminal maleimide joined by a thioether to 6-mercaptohexanoic acid on the 5' end of the sense strand of GAPDH siRNA; 1: (bAla); 2-5: (Sar); 21: (B13); 22: (G48)
B4: Peptide 2-GAPDH6-SPDP (peptide)
peptide: CXXXXXAPRWDAPLRDPALRQXX
modifications: N-terminal Ac; Cys 1 side chain in a disulphide with SPDP on the 5' end of the sense strand of GAPDH siRNA; 2: (bAla); 3-6: (Sar); 22: (B13); 23: (G48)
B5: SORT1 peptide 1 conjugate (peptide)
peptide: APRWDAPLRDPALRQLL
modifications: also: conjugated to siRNA, linker and handle not given here
notes: also called SORT1 peptide 1 siRNA conjugate

Assays:
[1] = Maximum tolerated dose (MTD) study; assay type: in vivo, mouse; settings: 10 mg/kg i.v. single dose
Experimental: BALB/c Nude mice, female, 6-8 weeks, weighing approximately 18-22 g were purchased from the Shanghai SLAC Laboratory Animal Co., LTD. MTD studies were conducted at WuXi AppTec and the care and use of animals was conducted in accordance with the regulations of the Association for Assessment and Accreditation of Laboratory Animal Care (AAALAC). Two MTD studies were performed (a) a low dose study with doses ranging from 0.1, 0.5, 1 and 3 mg/kg and (b) a high dose study with doses ranging from 3, 5, 10 mg/kg. Dosing volume was determined based on body weight (10 ul/g) and PDCs were dissolved in 25 mM Histidine 10% sucrose pH 7 and administered i.v. at a single dose at day 0. The treatment and observation were conducted up to 7 days and MTD was defined by ≥20% body weight loss. Body weights were measured daily, death and observed clinical signs were recorded.
Doses of 3, 5, and 10 mg/kg were administered. MTD was defined by ≥20% body weight loss and body weight measured daily.

[2] = target: T1, SORT1 on cells (HEK293 cells …); test: cell-based or functional assay
mouse SORT1 (76-753)-His = target: T2, mouse SORT1 (76-753)-His; test: SPR (Biacore 8K), SORT1 on CM5 chip, siRNA-peptide conjugate as analyte, 1:1 model
Experimental: (§1) SPR analysis was performed on Series S CM5 chips (Cytiva) using a Biacore 8K instrument (Cytiva). Sensorgrams were double-referenced by subtracting the response on both a reference flow cell and a blank sample. Human SORT1 (78-755)-His (Acrobiosystems), human SORT1 (78-755)-His(GenScript), mouse SORT1 (76-753)-His (R&D Systems), rat SORT1 (76-752)-His (GenScript), and cyno SORT1 (76-753)-His (GenScript) were diluted to 20-60 μg/mL in 10 mM sodium acetate pH 4.5 buffer and immobilized onto Series S CM5 chips using amine coupling at a flow rate of 10 μL/min for 45-100 s.
(§2) Ten start-up cycles and a blank cycle preceded each analysis run. The runs were performed by sequential injections of analyte (0-20 nM, 3-fold serial dilutions) with a 90 s association and 900 s dissociation at a flow rate of 30 μL/min, followed by two regeneration cycles with 2 M MgCl2 for 90 s at a flow rate of 10 μL/min. […] Five start-up cycles and a blank cycle preceded each analysis run. The runs were performed by sequential injections of analyte (0-25 nM) with a 150 seconds (s) association and 300 s dissociation at a flow rate of 30 μL/min, followed by a regeneration with 2 M MgCl₂ for 200 s at a flow rate of 10 μL/min. The kinetic rate constants (kₐ and kd) and the equilibrium binding constant (Kd) were calculated using a 1:1 kinetic binding model on the Biacore Insight Evaluation Software (Cytiva).
(§3) SPR analysis was performed on Series S CM5 chips (Cytiva) using a Biacore 8K instrument (Cytiva). Sensorgrams were double-referenced by subtracting the response on both a reference flow cell and a blank sample. The SPR analysis was conducted using four different SORT1 species: Human SORT1, Mouse SORT1, Rat SORT1, and Cyno SORT1. The samples were prepared according to the general procedure described above herein. The kinetic rate constants (ka and […]) and the equilibrium binding constant (Kd) were calculated using a 1:1 kinetic binding model on the Biacore Insight Evaluation Software (Cytiva).

rat SORT1 (76-752)-His = target: T3, rat SORT1 (76-752)-His; test: as above
Experimental: as §1, §2, §3

cyno SORT1 (76-753)-His = target: T4, cyno SORT1 (76-753)-His; test: as above
Experimental: as §1, §2, §3

Molecule	GAPDH mRNA % knockdown compared to untreated cells (RT-qPCR), HEK293 + SORT1 - CQ [2]	Kd (mouse SORT1 (76-753)-His)	Kd (rat SORT1 (76-752)-His)	Kd (cyno SORT1 (76-753)-His)	further results
CC[C@H](C)[C@@H]([C@@H](CC(=O)N1CCC[C@H]1[C@H](OC)[C@@H](C)C(=O)N[C@H](C)[C@@H](O)c1ccccc1)OC)N(C)C(=O)[C@@H](NC(=O)[C@H](C(C)C)N(C)C(=O)OCc1ccc(NC(=O)[C@H](CCCNC(N)=O)NC(=O)[C@@H](NC(=O)CCCC(=O)NCCC(=O)N(C)CC(=O)N(C)CC(=O)N(C)CC(=O)N(C)CC(=O)N[C@@H](CC(=O)O)C(=O)N[C@@H](CC(=O)O)C(=O)N2CCC[C@H]2C(=O)N[C@@H](CCCNC(=N)N)C(=O)N[C@@H](C)C(=O)N2CCC[C@H]2C(=O)N[C@@H](Cc2c[nH]c3ccccc23)C(=O)N2CCC[C@H]2C(=O)N[C@@H](C)C(=O)N[C@@H](CC(C)C)C(=O)N[C@@H](CCC(N)=O)C(=O)N[C@@H](CCCNC(=N)N)C(=O)N[C@@H](CC(C)C)C(=O)N[C@@H](C)C(=O)N[C@@H](CC(C)C)C(=O)N[C@@H](CCCNC(=N)N)C(=O)N[C@@H](CC(C)C)C(=O)O)C(C)C)cc1)C(C)C [PRGN_RL_PDC]	–	–	–	–	toxicity [1]: mild toxicity
B1	47%	–	–	–	–
B2	–	8.56 nM	14.6 nM	4.81 nM	–
B3	40%	–	–	–	–
B4	36%	–	–	–	–
B5	–	30.2 nM	49.2 nM	16.8 nM	–
